Literature values as cited in paper PMC4019842.

Target: holo-transferrin (Homo sapiens) (UniProt P02787)
Chain of UniProt P02787 (P02787 20-698): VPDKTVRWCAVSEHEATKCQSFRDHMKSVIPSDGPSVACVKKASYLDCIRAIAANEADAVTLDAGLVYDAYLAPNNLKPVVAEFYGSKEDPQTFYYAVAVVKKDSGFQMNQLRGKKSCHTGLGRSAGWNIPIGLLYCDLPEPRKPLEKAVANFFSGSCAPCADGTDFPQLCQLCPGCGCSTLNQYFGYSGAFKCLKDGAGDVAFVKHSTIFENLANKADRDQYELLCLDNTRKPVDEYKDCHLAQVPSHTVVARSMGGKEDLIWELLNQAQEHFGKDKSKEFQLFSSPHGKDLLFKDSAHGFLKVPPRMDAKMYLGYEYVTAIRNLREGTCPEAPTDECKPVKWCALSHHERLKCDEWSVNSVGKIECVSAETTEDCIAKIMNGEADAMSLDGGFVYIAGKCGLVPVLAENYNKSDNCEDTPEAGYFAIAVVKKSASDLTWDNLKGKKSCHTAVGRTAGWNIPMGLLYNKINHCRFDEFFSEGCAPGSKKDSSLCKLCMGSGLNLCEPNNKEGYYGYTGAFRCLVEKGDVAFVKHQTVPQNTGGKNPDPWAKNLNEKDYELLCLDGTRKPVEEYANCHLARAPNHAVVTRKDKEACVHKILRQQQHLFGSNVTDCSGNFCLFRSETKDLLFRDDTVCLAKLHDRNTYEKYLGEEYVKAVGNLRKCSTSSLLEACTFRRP

Kd: 30 nM
Substance: TFR2 (from UniProt Q9UP52)
